Results on five molecules are retold here after US20190144550A1 (Pfizer, published 2019).

One test concerns the target T1, EGFR-mFc (human; mouse, UniProt P00533 25-645).
T1 construct: extracellular domain; Produced in HEK293 cells; also called recombinant EGFR-mFc; not shown: mouse IgG1-Fc domain
Description: flow cytometry, CAR T cells on Day 4 after transduction incubated with EGFR-mFc, then PE-labeled goat anti-mouse Fc. The text has this: To determine target binding specificity of the CARs, recombinant proteins EGFRvII-mFc and EGFR-mFc, which comprise of the extracellular domain of either human EGFRvIII or human wild-type EGFR, respectively, fused with mouse IgG1-Fc domain, were produced in HEK293 cells. […]
Background: In flow cytometry, cells or beads pass a laser one at a time.

For test [1], the target named is T2, 8-histidine tagged recombinant wild-type protein EGFRwt (UniProt P00533 25-645, limits assumed).
T2 construct: not shown: 8-histidine tag
Description: SPR, captured by anti-human Fc. Background: SPR reads the build-up and loss of mass on a sensor chip optically.

The target in test [2] is T3, Monomeric 8-histidine tagged human EGFRvIII extracellular domain (human, UniProt P00533 298-645).
T3 construct: Analyte in all SPR assays; not shown: 8-histidine tag
Description: SPR, captured by anti-human Fc, 25 C. The text has this: (§1) Anti-EGFRvII mouse (m) antibody, m62G7, generated from hybridomas was sequenced and subcloned into suitable vectors for expression as murine-human chimeric antibodies. The CDRs of mouse antibody m62G7 were grafted onto human framework and expressed as human IgG1 recombinant antibody, h62G7. Affinity variants of h62G7 were made by introducing mutations in the CDRs of the heavy and light chains. The affinities of recombinant anti-EGFRvIII chimeric antibody m62G7 and humanized h62G7 antibodies were measured on a surface plasmon resonance Biacore™ T200 biosensor equipped with a research-grade anti-human Fc coupled CM4 sensor chip (GE Healthcare Inc., Piscataway, N.J.). Anti-EGFRvII antibodies were then captured by anti-human Fc. Monomeric 8-histidine tagged human EGFRvIII extracellular domain was then injected as the analyte at 10-fold dilution series with top concentration at 1000 nM. Affinity of anti-EGFRvIII antibodies towards human EGFRvIII was measured at both 25° C. and 37° C.

Test [3] has as its target T3, Monomeric 8-histidine tagged human …. Nature of the test: SPR, captured by anti-human Fc, 37 C.
Text: as §1

For test [4] the target is unchanged. Description: SPR, captured by anti-human Fc, 25 C; 25 C.

For orientation: Kd means the equilibrium constant for the complex coming apart. Low values mean tighter binding, high ones weaker binding. As usually defined, the koff is the first-order rate constant of dissociation. Low values mean slow dissociation, high ones fast dissociation. The kon is a measure of how fast the partners come together.

B1: C6 EGFRvIII specific CAR (other)
chain: QVQLVQSGAEVKKPGSSVKVSCKASGDTFSSNAISWVRQAPGQGLEWMGVIIPIFGTADYAQKFQGRVTITADESTSTAYMELSSLRSEDTAVYYCARHTYHEYAGGYYGGAMDPWGQGTLVTVSSGGGGSGGGGSGGGGSGGGGSELQSVLTQPPSASGTPGQRVTISCSGSSSNIGSNYVYWYQQLPGTAPKILIYRNNQRPSGVPDRFSGSKSGTSASLAISGLRSEDEADYYCAAWDDNLSGWVFGTGTKLTVLTTTPAPRPPTPAPTIASQPLSLRPEACRPAAGGAVHTRGLDFACDIYIWAPLAGTCGVLLLSLVITLYCKRGRKKLLYIFKQPFMRPVQTTQEEDGCSCRFPEEEEGGCELRVKFSRSADAPAYQQGQNQLYNELNLGRREEYDVLDKRRGRDPEMGGKPRRKNPQEGLYNELQKDKMAEAYSEIGMKGERRRGKGHDGLYQGLSTATKDTYDALHMQALPPR
notes: Chimeric antigen receptor on primary human T cells; also called EGFRvIII specific clone C6 CAR
As to B1, the binding result with EGFR-mFc is on record as “binds”.

B2: h62G7-EQ/L6 (antibody, V domains shown)
VH: QVQLVQSGAEVKKPGASVKVSCKASGYTFTDYTLHWVRQAPGQGLEWMGGIWPITGGTTYNQKFKGRVTMTRDTSTSTVYMELSSLRSEDTAVYYCARGEAQGSWGQGTLVTVSS
VL: DVVMTQSPLSLPVTLGQPASISCKSSQSLLYSNGKTYLNWFQQRPGQSPRRLIYQVSKLDSGVPDRFSGSGSGTDFTLKISRVEAEDVGVYYCGQDTHFPLTFGGGTKVEIK
notes: Humanized, human IgG1 recombinant antibody; also called h62G7-L6/EQ
As to B2, the binding result in test [1] is “no binding (tested: 1000 nM)”. In addition, in test [2], the affinity, expressed as Kd, was 0.0438 µM; the off-rate (koff) stood at 0.01 s⁻¹; the association rate constant (kon) came out at 240000 M⁻¹ s⁻¹. In test [3], this molecule returned a dissociation constant (Kd) of 0.113 µM, a dissociation rate constant (koff) of 0.074 s⁻¹ and an on-rate (kon) of 660000 M⁻¹ s⁻¹.

B3: h62G7-H14/L6 (antibody, V domains shown)
VH: QVQLVQSGAEVKKPGASVKVSCKASGYTFTDYTLHWVRQAPGQGLEWMGGIWPITGGTTYNQKFKGRVTMTRDTSTSTVYMELSSLRSEDTAVYYCARGEAEGSWGQGTLVTVSS
VL: DVVMTQSPLSLPVTLGQPASISCKSSQSLLYSNGKTYLNWFQQRPGQSPRRLIYQVSKLDSGVPDRFSGSGSGTDFTLKISRVEAEDVGVYYCGQDTHFPLTFGGGTKVEIK
notes: Human IgG1
Consider B3, for which, in test [1], the binding result was “no binding (tested: 1000 nM)”. In test [2], this molecule showed a Kd of 0.992 µM, a koff of 0.013 s⁻¹ and an on-rate constant (kon) of 13000 M⁻¹ s⁻¹. Moreover, in test [3], binding was characterised by a dissociation constant (Kd) of 1.58 µM, the dissociation rate constant (koff) came to 0.068 s⁻¹ and the association rate constant (kon) was found to be 43000 M⁻¹ s⁻¹.

B4: h62G7-H14/L1-DV (antibody, V domains shown)
VH: QVQLVQSGAEVKKPGASVKVSCKASGYTFTDYTLHWVRQAPGQGLEWMGGIWPITGGTTYNQKFKGRVTMTRDTSTSTVYMELSSLRSEDTAVYYCARGEAEGSWGQGTLVTVSS
VL: DVVMTQSPLSLPVTLGQPASISCKSSQSLLYSNDKTYTNWFQQRPGQSPRRLIYEVSKLDVGVPDRFSGSGSGTDFTLKISRVEAEDVGVYYCGQDTHFPLTFGGGTKVEIK
notes: Humanized, human IgG1 recombinant antibody
Consider B4, for which the binding result in test [1] is on record as “no binding (tested: 1000 nM)”. In test [2], this molecule gave a Kd of 1.09 µM, a koff of 0.02 s⁻¹ and a kon of 18000 M⁻¹ s⁻¹. In test [3], the affinity, expressed as Kd, was 1.54 µM; the off-rate constant (koff) was determined as 0.1 s⁻¹; the kon is 66000 M⁻¹ s⁻¹.

B5: h62G7-EQ/L1-DV (antibody, V domains shown)
VH: QVQLVQSGAEVKKPGASVKVSCKASGYTFTDYTLHWVRQAPGQGLEWMGGIWPITGGTTYNQKFKGRVTMTRDTSTSTVYMELSSLRSEDTAVYYCARGEAQGSWGQGTLVTVSS
VL: DVVMTQSPLSLPVTLGQPASISCKSSQSLLYSNDKTYTNWFQQRPGQSPRRLIYEVSKLDVGVPDRFSGSGSGTDFTLKISRVEAEDVGVYYCGQDTHFPLTFGGGTKVEIK
notes: Human IgG1
For the molecule B5, the binding result in test [1] was “no binding (tested: 1000 nM)”. In addition, the dissociation constant (Kd) in test [2] was 0.0599 µM; in test [3], 0.186 µM. The figures for the association rate constant (kon) in test [2] and in test [3] were 200000 M⁻¹ s⁻¹ and 370000 M⁻¹ s⁻¹, respectively. Moreover, the koff in test [3] was found to be 0.069 s⁻¹; in test [4], 0.012 s⁻¹.
